How the values were obtained:
[1] = biological target: FUT2-fucosylated E-cadherin (co-expressed with FUT2; with terminal fucosylation) (UniProt P12830); assay: atomic force microscopy
[2] = biological target: E-cadherin control (expressed without FUT2; without terminal fucosylation) (UniProt P12830); assay: atomic force microscopy

Substance | mean maximum adhesion force [1] [nN] | mean maximum adhesion force [2] [nN]
FUT2-fucosylated E-cadherin (co-expressed with FUT2; with terminal fucosylation) (from UniProt P12830 23-882) (natural protein) | 79.8 | 
E-cadherin control (expressed without FUT2; without terminal fucosylation) (from UniProt P12830 23-882) (natural protein) |  | 63.5

Reference: publication PMC10635007
